Assay results from a protein production outcome set (Wang et al. 2014).

Assay: label from the status in PepcDB records
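Further: failed if final PepcDB status was selected cloned or expressed and not failed if soluble or beyond.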

Sequence | protein production
MEQQKDYIELYENEELIEIREARMDDLDTIAKFNYNLAKETEGKELDMDVLTKGVKALLLDERKGKYHVYTVFDKVVAQIMYTYEWSDWRNGNFLWIQSVYVDKEYRRKGIFNYLFNYIKNICDKDENIVGMRLYVEKENINAKATYESLNMYECDYNMYEYEVIHS | failed
MEQRIWDLFGISADGNISRGNSGCVHTRNNKKEGDVLKVLTYVMLASVILFTTTYLILYLTYAKPVEIDVPFYGAPRGYTTITYEEVILPLTGKYKIENCYVQDSRSIYSNEGYLSERGVRIIVGNYTEDVYVRLIPQKMIPSEIIFLLMVGGVLGYVGDRMFKFK | failed
MERAAFGKLVQALRREHRDEKGRVWTQEVLAERTQLPKRTIERIENGSLAHLDADILLRLADALELTIGERREFFFAATGIIEQKSATYKRSPEESLQYLIDMIRNMNVPAFVTDQYVNIIAANMITIRFFNIPMELIETAPLLPHGYNLMRVVFGTEYDFRRVVGTMWDEVARHNMQLFRAISLRVRADGYFVELLDNLMQYREFKRFWERAHLETEDTSAENFWYQYTHPVYGLLSYVSSRSQIPTSMGLLSMHTYIPLSPATTDLFAKLSTVANQDVIRLAPWPRSNG | not failed
MERAFLRYVPILAFITIMTMYVEMVILPSLPEIENQFSITSSEASWVLSSETLAGMTLAPFLGKLADSYGRKKVLISILVVYILSVFLTAISPNYSILLISRSIQGIGLSINPIAYTILRERIPDRELPIAQGIIASTFAIGAAVALPIGSYISQYFSWEFAYETAIPLLILSTIIIYVILPSSESKGSDRKIDDVGVILLSLSFLILGIGLTEAPTWGWTSLQFFTSLLLSILLFYLFALHISKSRNPIIDPYDFKNPNVAVPLISSFITGFGLFLTFQSLVFIFELPSPIGYGMTILQTGETMAPIALIILIAGPFFGRLVTKIGYMKVILTSSSVSSFLLLFLAYIISLRISVLELMGFLSLILFFISGMNVTRVTLLIASSKRERMSTLTGTNTSMRLMGNTLGPIVVGSLEDTFKTPIFEGYLNNIPIFAFVPSRLAFEYAFLISMATTVLVTILATRIRERPSTTTYA | failed
MERDGCAGGGSRGGEGGRAPREGPAGNGRDRGRSHAAEAPGDPQAAASLLAPMDVGEEPLEKAARARTAKDPNTYKVLSLVLSVCVLTTILGCIFGLKPSCAKEVKSCKGRCFERTFGNCRCDAACVELGNCCLDYQETCIEPEHIWTCNKFRCGEKRLTRSLCACSDDCKDKGDCCINYSSVCQGEKSWVEEPCESINEPQCPAGFETPPTLLFSLDGFRAEYLHTWGGLLPVISKLKKCGTYTKNMRPVYPTKTFPNHYSIVTGLYPESHGIIDNKMYDPKMNASFSLKSKEKFNPEWYKGEPIWVTAKYQGLKSGTFFWPGSDVEINGIFPDIYKMYNGSVPFEERILAVLQWLQLPKDERPHFYTLYLEEPDSSGHSYGPVSSEVIKALQRVDGMVGMLMDGLKELNLHRCLNLILISDHGMEQGSCKKYIYLNKYLGDVKNIKVIYGPAARLRPSDVPDKYYSFNYEGIARNLSCREPNQHFKPYLKHFLPKRLHFAKSDRIEPLTFYLDPQWQLALNPSERKYCGSGFHGSDNVFSNMQALFVGYGPGFKHGIEADTFENIEVYNLMCDLLNLTPAPNNGTHGSLNHLLKNPVYTPKHPKEVHPLVQCPFTRNPRDNLGCSCNPSILPIEDFQTQFNLTVAEEKIIKHETLPYGRPRVLQKENTICLLSQHQFMSGYSQDILMPLWTSYTVDRNDSFSTEDFSNCLYQDFRIPLSPVHKCSFYKNNTKVSYGFLSPPQLNKNSSGIYSEALLTTNIVPMYQSFQVIWRYFHDTLLRKYAEERNGVNVVSGPVFDFDYDGRCDSLENLRQKRRVIRNQEILIPTHFFIVLTSCKDTSQTPLHCENLDTLAFILPHRTDNSESCVHGKHDSSWVEELLMLHRARITDVEHITGLSFYQQRKEPVSDILKLKTHLPTFSQED | failed
MERHEEIKKGAWIGILGNTVLAVLKILVGLLTGSYAILADGIDTSTDIFTSLVILLSSRISGKPPDETHPYGHERAETIASKIISFVMFYAGASLLVESVKRLVKQEFSLELTLTAFIVVGISVAGKTFLFLYKLSLGKRLKSSATISDALNMRNDIMISGTVLAGMVAMKTFGWWWLDSLLAIFVSIMILRTSFSVFYEAAYELMDGMKRTELDMYDDIFAVLERFPNVHNPHRVRIRRVGTKYFIEMDIEVDGKMSVKDAHELTVKIRKEMLKRRDDIEDVTIHVEPLGNVEEEGFGLKKGEKK | failed
MERHQHLLSEYQQILTLSEQMLVLATEGNWDALVDLEMTYLKAVESTANITISSCSSLMLQDLLREKLRAILDNEIEIKRLLQLRLDRLSDLVGQSTKQQAVNNTYGQFPDHALLLGETQ | not failed
